Experiment [1] deals with T1, constitutively active human NPR1 mutant (W74R), recombinant antigen (human, UniProt P16066 33-473).
T1 construct: also called W74R hNPR1
T1 sequence: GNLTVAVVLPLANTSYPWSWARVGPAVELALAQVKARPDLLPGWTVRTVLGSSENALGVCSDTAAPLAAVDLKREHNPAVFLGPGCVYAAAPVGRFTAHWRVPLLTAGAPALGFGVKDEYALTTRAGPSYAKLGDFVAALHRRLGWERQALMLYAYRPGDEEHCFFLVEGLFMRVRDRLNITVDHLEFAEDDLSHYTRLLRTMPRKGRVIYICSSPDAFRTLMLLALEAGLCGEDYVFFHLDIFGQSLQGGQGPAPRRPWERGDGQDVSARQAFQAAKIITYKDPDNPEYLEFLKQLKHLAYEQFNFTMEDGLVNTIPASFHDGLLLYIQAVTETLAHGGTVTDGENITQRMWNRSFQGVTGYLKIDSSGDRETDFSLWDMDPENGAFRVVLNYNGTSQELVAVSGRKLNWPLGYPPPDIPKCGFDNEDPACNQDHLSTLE
Put plainly: ELISA, IgG titrated on the antigen without ANP.

Experiment [2] has as its target T2, human NPR1-ANP complex (human, UniProt P01160 124-151, limits assumed).
T2 construct: Receptor antigen measured in the presence of ANP; also called hNPR1 + ANP; hNPR1-ANP-complex
T2 sequence: T1 sequence with R74W
T2 sequence (peptide): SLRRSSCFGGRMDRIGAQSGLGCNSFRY
The experiment can be described thus: ELISA, IgG titrated on the antigen with 250 fold molar excess of ANP [cont.].

Experiment [3] concerns the target T3, rat NPR1-ANP complex (rat).
T3 construct: Rat receptor antigen measured in the presence of ANP; also called rNPR1 + ANP; rNPR1-ANP-complex
The experiment is described as above.

The target of experiment [4] is T4, human NPR1 expressed on CHO-K1 cells (human, UniProt P16066 33-1061).
T4 construct: also called hNPR1 CHO K1; human NPR1 expressing CHO-K1 cells
T4 sequence: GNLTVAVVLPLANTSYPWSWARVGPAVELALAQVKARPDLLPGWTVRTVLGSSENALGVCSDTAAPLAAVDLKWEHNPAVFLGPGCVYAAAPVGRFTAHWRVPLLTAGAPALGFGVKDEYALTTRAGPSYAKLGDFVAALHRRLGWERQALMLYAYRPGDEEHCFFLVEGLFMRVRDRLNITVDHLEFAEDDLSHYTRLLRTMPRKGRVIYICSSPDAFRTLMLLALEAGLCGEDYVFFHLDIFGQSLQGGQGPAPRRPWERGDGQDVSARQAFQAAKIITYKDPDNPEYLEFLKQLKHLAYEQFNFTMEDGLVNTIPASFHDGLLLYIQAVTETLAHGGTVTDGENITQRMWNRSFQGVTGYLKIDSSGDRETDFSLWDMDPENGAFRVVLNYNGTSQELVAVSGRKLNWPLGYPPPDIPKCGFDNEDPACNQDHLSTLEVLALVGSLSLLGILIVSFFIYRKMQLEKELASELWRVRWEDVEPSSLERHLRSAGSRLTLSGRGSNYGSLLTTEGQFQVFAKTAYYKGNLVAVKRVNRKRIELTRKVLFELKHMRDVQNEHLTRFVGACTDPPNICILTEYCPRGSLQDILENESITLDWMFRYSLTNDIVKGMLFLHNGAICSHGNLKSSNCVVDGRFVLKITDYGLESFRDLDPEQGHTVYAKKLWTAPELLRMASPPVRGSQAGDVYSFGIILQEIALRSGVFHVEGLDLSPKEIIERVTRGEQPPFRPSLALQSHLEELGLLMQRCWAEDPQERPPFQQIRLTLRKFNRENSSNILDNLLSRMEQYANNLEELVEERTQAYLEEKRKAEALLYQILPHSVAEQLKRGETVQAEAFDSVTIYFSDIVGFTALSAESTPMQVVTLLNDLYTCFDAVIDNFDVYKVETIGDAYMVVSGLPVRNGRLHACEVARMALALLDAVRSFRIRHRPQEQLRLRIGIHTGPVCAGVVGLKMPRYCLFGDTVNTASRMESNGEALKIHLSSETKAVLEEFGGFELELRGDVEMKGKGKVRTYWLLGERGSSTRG
The experiment can be described thus: flow cytometry, hNPR1 expressing CHO-K1 cells without ANP.

Experiment [5] deals with T5, human NPR1 expressed on CHO-K1 cells in the presence of ANP (human, UniProt P01160 124-151).
T5 construct: also called hNPR1 CHO K1 + 100 nM ANP
T5 sequence: T4 sequence
T5 sequence (peptide): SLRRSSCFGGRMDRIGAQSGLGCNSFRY
The experiment can be described thus: flow cytometry, hNPR1 expressing CHO-K1 cells with saturating ANP [cont.].

Experiment [6] deals with T2, human NPR1-ANP complex. The experiment can be described thus: FRET assay on hNPR1, competitor Cy5-labeled ANP (half-maximal rise of the ANP signal) [cont.].
Experiment [7] addresses T6, human NPR1 (Natriuretic Peptide Receptor 1), recombinant antigen (human, UniProt P16066 33-473).
T6 construct: also called hNPR1; NPR1-hFc
T6 sequence: T1 sequence with R74W
Put plainly: ELISA, 1 uM IgG.

The target of experiment [8] is T7, rat NPR1, recombinant antigen (rat, UniProt P18910 29-469).
T7 construct: NCBI NP_036745.1 printed; also called rNPR1
T7 sequence: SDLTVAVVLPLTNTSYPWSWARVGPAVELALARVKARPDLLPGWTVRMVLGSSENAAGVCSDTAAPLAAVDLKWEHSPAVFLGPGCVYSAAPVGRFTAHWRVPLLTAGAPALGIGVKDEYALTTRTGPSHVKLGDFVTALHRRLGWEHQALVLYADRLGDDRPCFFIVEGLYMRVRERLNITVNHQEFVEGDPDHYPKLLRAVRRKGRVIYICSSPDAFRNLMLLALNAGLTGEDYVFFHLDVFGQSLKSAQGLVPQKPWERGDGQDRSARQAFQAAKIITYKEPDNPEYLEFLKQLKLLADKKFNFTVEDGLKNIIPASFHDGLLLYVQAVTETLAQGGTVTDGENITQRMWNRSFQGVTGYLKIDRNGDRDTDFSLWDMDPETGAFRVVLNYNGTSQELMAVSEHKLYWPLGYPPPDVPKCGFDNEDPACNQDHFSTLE
The experiment can be described thus: ELISA, 1 uM IgG.

Experiment [9] concerns the target T1, constitutively active human NPR1 mutant …. The experiment can be described thus: ELISA, 1 uM IgG.
For experiment [10], the target named is T8, human NPR3 (counter target) (human, UniProt P17342 27-481, limits assumed).
T8 construct: hNPR3-hFc is named in the pannings; also called hNPR3; hNPR3-hFc
T8 sequence (looked up): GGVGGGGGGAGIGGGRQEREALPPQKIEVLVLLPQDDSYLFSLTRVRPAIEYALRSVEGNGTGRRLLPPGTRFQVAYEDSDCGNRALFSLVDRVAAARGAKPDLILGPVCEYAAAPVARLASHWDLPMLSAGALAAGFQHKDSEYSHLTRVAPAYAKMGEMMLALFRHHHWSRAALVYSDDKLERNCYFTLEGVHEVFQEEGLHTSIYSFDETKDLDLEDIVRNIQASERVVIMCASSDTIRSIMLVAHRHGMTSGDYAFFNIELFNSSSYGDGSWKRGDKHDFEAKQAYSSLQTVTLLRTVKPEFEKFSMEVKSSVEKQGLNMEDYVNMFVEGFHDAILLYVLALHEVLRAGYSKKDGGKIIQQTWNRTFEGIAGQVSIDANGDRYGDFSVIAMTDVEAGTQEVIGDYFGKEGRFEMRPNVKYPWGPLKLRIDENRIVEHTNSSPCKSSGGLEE
Put plainly: ELISA, 1 uM IgG.

The target in experiment [11] is T4, human NPR1 expressed on CHO-K1 cells. Put plainly: cell-based or functional assay.
Experiment [12] has the same target. The experiment can be described thus: flow cytometry, 1 uM IgG.
Experiment [13] concerns the target T2, human NPR1-ANP complex. The experiment can be described thus: ELISA, 1 uM IgG, +100 nM ANP.
The target of experiment [14] is T3, rat NPR1-ANP complex. Put plainly: ELISA, 1 uM IgG, +100 nM ANP.
The target of experiment [15] is T5, human NPR1 expressed on CHO-K1 cells in …. Put plainly: flow cytometry, 1 uM IgG, +100 nM ANP.
In experiment [16] the target is T1, constitutively active human NPR1 mutant …. Put plainly: ELISA, IgG titrated on the antigen without ANP [cont.].

Substitutions are numbered along the chain they refer to.

From US20200392225A1 (Novartis, published 2020) come the findings set out here.

B1: WW01 IgG (WW01_LALA) (antibody, V domains shown)
VH: QVQLLESGGGLVQPGGSLRLSCAASGFTFNTHYIHWVRQAPGKGLEWVSSISGSGSNTYYADSVKGRFTISRDNSKNTLYLQMNSLRAEDTAVYYCARERGYVYYHMFDPWGQGTLVTVSS
VL: DIVLTQSPATLSLSPGERATLSCRASQSITRNYLAWYQQKPGQAPRLLIYGASSRATGIPARFSGSGSGTDFTLTISSLEPEDFAVYYCQQHSMYPRTFGQGTKVEIKR
As for B1, the binding result in experiment [1] is reported as “no binding (tested: 1000 nM)”.

B2: XX08 (antibody, human IgG1, kappa, L234A L235A, V domains shown)
VH: B1 VH with Q1E, S52G, S54Q, S56G, N57M, Y59L
VL: B1 VL
notes: the panel axis reads IgG conc; [nM]; the list MOLECULES holds only the FabCys format; also called XX08 IgG; XX08_LALA
As to B2, the “EC50 (read off the curve)” value in the experiment with human NPR1-ANP complex [2] was around 0.5 nM.

B3: XX07 IgG (antibody, V domains shown)
VH: QVQLLESGGGLVQPGGSLRLSCAASGFTFSSYWMNWVRQAPGKGLEWVSAISSDGSYTYYADSVKGRFTISRDNSKNTLYLQMNSLRAEDTAVYYCARDRYSMIYSYGAGAFDYWGQGTLVTVSS
VL: DIQMTQSPSSLSASVGDRVTITCRASQGISSYLAWYQQKPGKAPKLLIYTASTLQSGVPSRFSGSGSGTDFTLTISSLQPEDFATYYCQQIWTVPRTFGQGTKVEIKR
notes: also called XX07_LALA
Regarding B3, the “EC50 (read off the curve)” value in the experiment with rat NPR1-ANP complex [3] was around 0.2 nM.

B4: YY03 IgG (YY03_LALA) (antibody, V domains shown)
VH: EVQLLESGGGLVQPGGSLRLSCAASGFTFSSYAISWVRQAPGKGLEWVSAISGSGGSTYYAESVKGRFTISRDNSKNTLYLQMNSLRAEDTAVYYCARESGYVYYLKFDYWGQGTLVTVSS
VL: B3 VL with G28S, A34N, T50A, T53S, I91H, W92V, T93R, R96I
B4: the binding result in experiment [4] was “no binding (tested: 1000 nM)”.

B5: XX12 IgG (antibody, V domains shown)
VH: B3 VH
VL: B3 VL with T93M, V94A
notes: also called XX12_LALA
Turning to B5, the “EC50 (read off the curve)” value is around 0.9 nM in experiment [5] and around 0.5 nM with human NPR1-ANP complex [6].

B6: YY07 IgG (YY07_LALA) (antibody, V domains shown)
VH: EVQLVQSGAEVKKPGESLKISCKGSGYSFTSYWISWVRQMPGKGLEWMGIIYPGTSYTRYSPSFQGQVTISADKSISTAYLQWSSLKASDTAMYYCARGSLPGLLGFDHWGQGTLVTVSS
VL: QSVLTQPPSVSGAPGQRVTISCTGSSSNIGAGYDVHWYQQLPGTAPKLLIYGNSNRPNGVPDRFSGSKSGTSASLAITGLQAEDEADYYCQSYDSPTSSSVFGGGTKLTVLG
B6: the “ELISA IgG binding at 1 uM IgG (unit not given)” value in experiment [7] is 68; in [8], 3; in [9], 53; in [10], 6; in the experiment with human NPR1-ANP complex [13], 24; with rat NPR1-ANP complex [14] it was 3. The “cGMP conc [nM] at 1 uM IgG, +0.075 nM ANP” value in [11] is 9 nM. Moreover, in experiment [11], the “cGMP conc [nM] at 1 uM IgG, without ANP” value was 4 nM. Moreover, the entries for the “flow cytometry S/BG” value in [12] and in [15] were 8 S/BG and 44 S/BG, respectively. The “EC50 (read off the curve)” value in experiment [16] was around 2 nM.
